In patent US20160017016A1 (AstraZeneca / MedImmune, published 2016):
*1 amine or outer side, *2 acyl side, *3 side chain or, on linkers, in order; H or OH if unused. Primed or numbered codes have the meaning given here. Where no end group is shown, it is not given here. Side-chain parts run from the residue outwards. [ ]: non-standard residue; d: D form. The star is where a group is joined. PEG4′ = 4 PEG units (K(PEGxpalm): Lys with x PEG units and palmitoyl at epsilon N, C-terminal (PEG)4); γGlu = O=C(O)[C@H](CCC(=O)[*:2])N[*:1]; Palmitoyl = CCCCCCCCCCCCCCCC(=O)*; Aib = CC(C)(N)C(=O)O; PEG2′ = 2 PEG units

Target: human GLP-1 receptor (GLP-1R) (human, UniProt P43220 24-463)
Experiment: cell-based or functional assay

Row | Binder | cAMP activity, GLP1 EC50 nM [nM]
1 | HXQGTFTSDYSKYLDSXRAQDFVQWLV (alpha-amino-iso-butyric acid (Aib) at 2; K(gE-palm) at 17; C-terminal PEG4) [g500] | 0.08
2 | HSQGTFTSDYSKYLDSRRAQDFVQWLV (C-terminal PEG4) [g356] | 0.05
3 | HSQGTFTSDYSEYLDSK([γGlu-Palmitoyl])RARDFVAWLV[PEG4′] [g784] | 0.3
4 | HGQGTFTSDYSKYLDSXRAQDFVQWLV (K(gE-palm) at 17; C-terminal PEG2) [g691] | 0.05
5 | HGQGTFTSDYSKYLESK([PEG4′-Palmitoyl])RAQDFVQWLV[PEG4′] [g499] | 0.02
6 | HGQGTFTSDYSRYLDSK([γGlu-Palmitoyl])RARDFVEWLV[PEG4′] [g719] | 0.09
7 | HSQGTFTSDYSKYLDSRKRAQDFVQWLV[PEG4′] (not fully specified (residue 18); printed as HSQGTFTSDYSKYLDSRB1RAQDFVQWLVZ4) [g415] | 0.007
8 | HSQGTFTSDYSKYLDEK([γGlu-Palmitoyl])RAQDFVQWLV[PEG4′] [g810] | 0.5
9 | HGQGTFTSDYSKYLDSXRAQDFVQWLE (K(gE-palm) at 17; C-terminal PEG4) [g516] | 0.6
10 | HSQGTFTSDYSKYLDSKRAQDFVQWLEA (K(gE-palm) at 17 (printed as B); C-terminal PEG2) [g533] | 0.09
11 | HSQGTFTSDYSKYLDSXRAQDFVQWLV (not fully specified; K(PEG2-palm) at 17; C-terminal PEG4) [g435] | 0.01
12 | HSQGTFTSDYSXYLDSRRAQDFVQWLV (K(gE-palm) at 12; C-terminal PEG4) [g416] | 1
13 | HSQGTFTSDYSKYLDSXRAQDFVQWLV (not fully specified; K(PEG4-palm) at 17; C-terminal PEG8) [g439] | 0.008
14 | HSQGTFTSDYSKYLDK([γGlu-Palmitoyl])RRAQDFVQWEV[PEG4′] [g496] | 8
15 | HSQGTFTSDYSKYLDSXRAQDFVQWLV (not fully specified; K(PEG4-palm) at 17; C-terminal PEG3) [g436] | 0.01
16 | HXQGTFTSDYSKYLDSXRAQDFVQWLV (alpha-amino-iso-butyric acid (Aib) at 2; K(PEG4-palm) at 17; C-terminal PEG4) [g501] | 0.03
17 | HSEGTFTSDYSKYLDSK([γGlu-Palmitoyl])RAQDFVQWLV[PEG4′] [g432] | 0.07
18 | HSQGTFTSDYSKYLDSXRAQDFVQWLV (not fully specified; K(PEG4-palm) at 17; C-terminal PEG12) [g440] | 0.008
19 | HSQGTFTSDYSKYLDSK([γGlu-Palmitoyl])RARDFVAWLV[PEG4′] [g800] | 0.09
20 | HSQGTFTSDYSKYLDSRRAQXFVQWLV (K(gE-palm) at 21; C-terminal PEG4) [g808] | 50
21 | HGQGTFTSDYSKYLDSXRAQDFVQWLV (not fully specified; K(PEG4-palm) at 17; C-terminal PEG4) [g431] | 0.006
22 | HGQGTFTSDYSKYLDSXRAQDFVQWLV (K(gE-palm) at 17; C-terminal PEG3) [g690] | 0.06
23 | HGQGTFTSDYSEYLDSK([γGlu-Palmitoyl])RARDFVEWLV[PEG4′] [g677] | 0.3
24 | HSQGTFTSDYSKYLDSXRAQDFVQWLV (K(PEG3-palm) at 17; C-terminal PEG4) [g434] | 0.005
25 | HSQGTFTSDYSKYLDSXRAQDFVQWLV (not fully specified; K(PEG4-palm) at 17; C-terminal PEG2) [g437] | 0.006
26 | H[Aib]QGTFTSDYSKYLDSK([γGlu-Palmitoyl])RAQDFVAWLV[PEG4′] [g870] | 0.09
27 | HSQGTFTSDYSKYLDSXRAQDFVQWLV (K(gE-palm) at 17; C-terminal PEG4) [g414] | 0.2
28 | HGQGTFTSDYSKYLDSXRAQDFVQWLV (K(gE-palm) at 17; C-terminal PEG6) [g692] | 0.06
29 | HSEGTFTSDYSKYLDSKRAQDFVQWLV[PEG4′] (not fully specified (residue 17); printed as HSEGTFTSDYSKYLDSB1RAQDFVQWLVZ4) [g433] | 0.004
30 | HSQGTFTSDYSKYLDSXRAQDFVQWLV (not fully specified; K(PEG4-palm) at 17; C-terminal PEG6) [g438] | 0.005

Target: human glucagon receptor (GCGR) (human, UniProt P47871 26-477)
Sequence (P47871 26-477): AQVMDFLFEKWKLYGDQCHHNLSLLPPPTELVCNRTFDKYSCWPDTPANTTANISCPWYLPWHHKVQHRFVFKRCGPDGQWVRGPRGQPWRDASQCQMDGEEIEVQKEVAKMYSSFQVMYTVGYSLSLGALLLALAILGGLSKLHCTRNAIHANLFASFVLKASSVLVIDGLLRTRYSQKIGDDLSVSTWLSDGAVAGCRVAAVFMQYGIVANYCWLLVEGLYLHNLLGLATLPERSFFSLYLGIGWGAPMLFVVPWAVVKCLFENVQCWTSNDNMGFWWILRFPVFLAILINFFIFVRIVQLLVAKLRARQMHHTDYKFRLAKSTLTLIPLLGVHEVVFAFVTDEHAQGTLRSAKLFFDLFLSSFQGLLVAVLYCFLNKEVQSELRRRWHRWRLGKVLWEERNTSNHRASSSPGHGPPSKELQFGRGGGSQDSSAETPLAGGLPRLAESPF
Experiment: cell-based or functional assay

Row | Binder | cAMP activity, Glcg EC50 nM [nM]
31 | HSQGTFTSDYSEYLDSK([γGlu-Palmitoyl])RAADFVQWLV[PEG4′] (not fully specified; printed as HSQGTFTSDYSEYLDSBRAADFVQWLVZ4) [g775] | 0.08
32 | H[Aib]QGTFTSDYSKYLDSK([PEG4′-γGlu-Palmitoyl])RARDFVAWLV[PEG4′] [g968] | 0.006
33 | HSQGTFTSDYSKYLDSXRAQDFVQWLV (not fully specified; K(PEG4-gE-palm) at 17; C-terminal PEG4) [g964] | 0.002
34 | HSQGTFTSDYSKYK([γGlu-Palmitoyl])DSRRAQDFVQWLV[PEG4′] [g426] | 0.003
35 | HSQGTFTSDYSKYLDSXRAQDFVQWLV (not fully specified; K(PEG2-gE-palm) at 17; C-terminal PEG4) [g965] | 0.002
36 | HSQGTFTSDYSKYK([γGlu-Palmitoyl])DEERAQDFVQWLV[PEG4′] [g807] | 0.01
37 | HSQGTFTSDYSKYLDSK([γGlu-Palmitoyl])RAQDFVQWEV[PEG4′] [g458] | 9
38 | HSQGTFTSDYSKYLDSXRAQDFVQWLE (not fully specified; K(PEG2-PEG2-gE-palm) at 17; C-terminal PEG4) [g966] | 0.001
39 | HGQGTFTSDYSKYLESK([PEG4′-Palmitoyl])RAQDFVQWLV[PEG4′] [g499] | 0.03
40 | H[Aib]QGTFTSDYSKYK([γGlu-Palmitoyl])DSERARDFVAWLV[PEG4′] [g868] | 0.02
41 | HSQGTFTSDYSKYLDSRRAXDFVQWLV (K(gE-palm) at 20; C-terminal PEG4) [g456] | 0.07
42 | HSQGTFTSDYSKYLDSRKRAQDFVQWLV[PEG4′] (not fully specified (residue 18); printed as HSQGTFTSDYSKYLDSRB1RAQDFVQWLVZ4) [g415] | 0.002
43 | HSQGTFTSDYSKYLDEK([γGlu-Palmitoyl])RAQDFVQWLV[PEG4′] [g810] | 0.03
44 | HSQGTFTSDYSKYLDSRRAQDFVQWLV (C-terminal PEG2) [g355] | 0.03
45 | HSQGTFTSDYSEYLDSK([γGlu-Palmitoyl])RAQDFVQWLV[PEG4′] [g676] | 40
46 | HGQGTFTSDYSKYLDSXRAQDFVQWLE (K(gE-palm) at 17; C-terminal PEG4) [g516] | 0.08
47 | HSQGTFTSDYSKYLDSKRAQDFVQWLEA (K(gE-palm) at 17 (printed as B); C-terminal PEG2) [g533] | 0.003
48 | HSQGTFTSDYSKYLDSXRAQDFVQWLV (not fully specified; K(PEG2-palm) at 17; C-terminal PEG4) [g435] | 0.002
49 | HSQGTFTSDYSXYLDSRRAQDFVQWLV (K(gE-palm) at 12; C-terminal PEG4) [g416] | 0.6

Row | Binder | cAMP activity, Glcg EC50 nM [nM]
50 | HSQGTFTSDYSKYLDSK([PEG4′-Palmitoyl])RAQDFVQWEV[PEG4′] [g459] | 0.3
51 | HSQGTFTSDYSKYLDSXRAQDFVQWLV (not fully specified; K(PEG4-palm) at 17; C-terminal PEG8) [g439] | 0.002
52 | HSQGTFTSDYSKYLDSXRAQDFVQWLV (not fully specified; K(PEG4-palm) at 17; C-terminal PEG3) [g436] | 0.002
53 | HGQGTFTSDYSKYLDSXRAQDFVQWLV (K(gE-palm) at 17; C-terminal PEG4) [g430] | 0.8
54 | HXQGTFTSDYSKYLDSXRAQDFVQWLV (alpha-amino-iso-butyric acid (Aib) at 2; K(PEG4-palm) at 17; C-terminal PEG4) [g501] | 0.003
55 | HSQGTFTSDYSKYLDSXRAQDFVQWLV (not fully specified; K(PEG4-palm) at 17; C-terminal PEG12) [g440] | 0.002
56 | HGQGTFTSDYSKYLDSXRAQDFVQWLV (not fully specified; K(PEG4-palm) at 17; C-terminal PEG4) [g431] | 0.004
57 | HSQGTFTSDYSKK([PEG4′-Palmitoyl])LDSSRARDFVAWLV[PEG4′] [g970] | 0.003
58 | HSQGTFTSDYSKYLDSRAAQK([γGlu-Palmitoyl])FVQWLV[PEG4′] [g809] | 0.07
59 | HSQGTFTSDYSKYLDSRKAQDFVQWLE[PEG4′] (not fully specified (residue 18); printed as HSQGTFTSDYSKYLDSRB1AQDFVQWLEZ4) [g455] | 0.001
60 | HGQGTFTSDYSKYLDSXRAQDFVQWLV (K(gE-palm) at 17; C-terminal PEG3) [g690] | 0.1
61 | HSQGTFTSDYSKYLDSXRAQDFVQWLV (K(PEG3-palm) at 17; C-terminal PEG4) [g434] | 0.02
62 | HSQGTFTSDYSKYLDSXRAQDFVQWLV (not fully specified; K(PEG4-palm) at 17; C-terminal PEG2) [g437] | 0.002
63 | HSQGTFTSDK([PEG4′-Palmitoyl])SKYLDSSRARDFVAWLV[PEG4′] [g971] | 0.007
64 | HSQGTFTSDYSKYLDK([PEG4′-Palmitoyl])RRAQDFVQWEV[PEG4′] [g497] | 0.3
65 | HSEGTFTSDYSKYLDSKRAQDFVQWLV[PEG4′] (not fully specified (residue 17); printed as HSEGTFTSDYSKYLDSB1RAQDFVQWLVZ4) [g433] | 0.03
66 | HSQGTFTSDYSKYLDSXRAQDFVQWLV (not fully specified; K(PEG4-palm) at 17; C-terminal PEG6) [g438] | 0.002
67 | HSQGTFTSDYSKYLDSK([PEG4′-γGlu-Palmitoyl])RARDFVAWLE[PEG2′] [g967] | 0.006
